± gives the standard deviation of the averaged measurements.

Series [1] has as its system VchCAST RNA-guided transposition machinery (E. coli BL21(DE3) host, lacZ target). As to the kind of experiment: relative integration efficiency (T-RL orientation) vs wild-type transposon end (log2 (normalized fold change)); transposon end mutated: right end (5 bp flank + 75 bp right end); higher = more efficient transposition. The gist of the method:
(§1)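 Relative integration efficiency is a fold change of output over input barcode abundance, normalised to reference barcodes and log-transformed. Input plasmids and genomic integration junctions were PCR-amplified and Illumina-sequenced from E. coli BL21(DE3) co-transformed with a T7-driven effector plasmid and pUC57 donor pools of 1549 left-end or 1849 right-end transposon variants. Plating was done with 0.1 mM IPTG at 37°C for 18 h, with two biological output replicates and four reference barcodes.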

Series [2] has the same test system. Briefly: relative integration efficiency (T-LR orientation) vs wild-type transposon end (log2 (normalized fold change)); transposon end mutated: right end (5 bp flank + 75 bp right end); higher = more efficient transposition. In a few lines:
as §1

With “ACATTTGTTGATACAACCATCAAATGATAATTCCACCCCTAAATTGATAATTATCACACCCAATTTAACTATAACGCTCTGATCATAGTCAGACCAACATTGCTACGACCCGTATTCGCACCGACAC”, the “relative integration efficiency (log2)” value was -3.65 ± 0.074 in series [1] and -1.01 ± 0.31 in series [2].
In the case of “ACATTTGTTGATACAACCATCAAATGATAATTCCACCCCTACATTGATAATTATCACACCCAATTTAACTATAACGCTCTGATCATAGTCAGACCAACATTGCTACGACCCGTATTCGCACCGACAC”, the “relative integration efficiency (log2)” value was -4.18 ± 0.17 in series [1] and -0.8 ± 0.15 in series [2].
On to “ACATTTGTTGATACAACCATCAAATGGTAATTACACCCATAAATTGATAATTATCACACCCAATTTAACTATAACGCTCTGATCATAGTCAGACCAACATTGCTACGACCCGTATTCGCACCGACAC”, for which the “relative integration efficiency (log2)” value in series [1] was -0.349 ± 0.42; in series [2], 2.24 ± 0.09.
On to “ACATTTGTTGATACAACCATCAAATGGTAATTACACCCATACATTGATAATTATCACACCCAATTTAACTATAACGCTCTGATCATAGTCAGACCAACATTGCTACGACCCGTATTCGCACCGACAC”, for which the “relative integration efficiency (log2)” value in series [1] was -4.04 ± 0.11; in series [2] it was -1.54 ± 0.61.
Consider “ACATTTGTTGATACAACCATCAAATGGTAATTACACCCCTAAATTGATAATTATCACACCCAATTTAACTATAACGCTCTGATCATAGTCAGACCAACATTGCTACGACCCGTATTCGCACCGACAC”, for which the entries for the “relative integration efficiency (log2)” value in series [1] and in series [2] were -4.79 ± 0.36 and -2.01 ± 0.77, respectively.
Consider “ACATTTGTTGATACAACCATCAAATGGTAATTACACCCCTACATTGATAATTATCACACCCAATTTAACTATAACGCTCTGATCATAGTCAGACCAACATTGCTACGACCCGTATTCGCACCGACAC”, for which the entries for the “relative integration efficiency (log2)” value in series [1] and in series [2] were -5.5 ± 0.092 and -3.18 ± 1.1, respectively.
As for “ACATTTGTTGATACAACCATCAAATGGTAATTCCACCCATAAATTGATAATTATCACACCCAATTTAACTATAACGCTCTGATCATAGTCAGACCAACATTGCTACGACCCGTATTCGCACCGACAC”, the results for the “relative integration efficiency (log2)” value in series [1] and in series [2] were -2.06 ± 0.2 and 0.505 ± 0.11, respectively.
Take “ACATTTGTTGATACAACCATCAAATGGTAATTCCACCCATACATTGATAATTATCACACCCAATTTAACTATAACGCTCTGATCATAGTCAGACCAACATTGCTACGACCCGTATTCGCACCGACAC”: the “relative integration efficiency (log2)” value was -4.83 ± 0.15 in series [1] and -2.28 ± 0.36 in series [2].
Regarding “ACATTTGTTGATACAACCATCAAATGGTAATTCCACCCCTAAATTGATAATTATCACACCCAATTTAACTATAACGCTCTGATCATAGTCAGACCAACATTGCTACGACCCGTATTCGCACCGACAC”, the “relative integration efficiency (log2)” value in series [1] is -5.34 ± 0.16; in series [2], -2.59 ± 0.29.
Taken in the same sequence, the figures for “ACATTTGTTGATACAACCATCAAATGGTAATTCCACCCCTACATTGATAATTATCACACCCAATTTAACTATAACGCTCTGATCATAGTCAGACCAACATTGCTACGACCCGTATTCGCACCGACAC” were -5.71 ± 0.097 and -3.06 ± 0.11.
The like results for “ACATTTGTTGATACAACCATCCAATGATAATTACACCCATAAATTGATAATTATCACACCCATAAATTGATATTGCCTCTGATCATAGTCAGACCAACATTGCTACGACCCGTATTCGCACCGACAC” were, in that order, -1.36 ± 0.083 and -2.03 ± 0.58.
On to “ACATTTGTTGATACAACCATCCCCTGATAATTACACCCATAAATTGATAATTATCACACCCATAAATTGATATTGCCTCTGATCATAGTCAGACCAACATTGCTACGACCCGTATTCGCACCGACAC”, for which the entries for the “relative integration efficiency (log2)” value in series [1] and in series [2] were -2.13 ± 0.056 and -1.78 ± 0.023, respectively.
For the sequence “ACATTTGTTGATACAACCATCCCCTGATAATTACACCCATCCCGTGATAATTATCACACCCATCCCGTGATATTGCCTCTGATCATAGTCAGACCAACATTGCTACGACCCGTATTCGCACCGACAC”, the “relative integration efficiency (log2)” value in series [1] was -5.99 ± 0.12; in series [2] it was -3.86 ± 0.83.
For “ACATTTGTTGATACAACCATTAAATAATAATTCCACCCATAAATTGATAATTATCACACCCAATTTAACTATAACGCTCTGATCATAGTCAGACCAACATTGCTACGACCCGTATTCGCACCGACAC”, the “relative integration efficiency (log2)” value is -1.71 ± 0.2 in series [1] and 1.55 ± 0.071 in series [2].
Turning to “ACATTTGTTGATACAACCATTAAATGATAATTACACCCAAAAATTGATAATTATCACACCCAATTTAACTATAACGCTCTGATCATAGTCAGACCAACATTGCTACGACCCGTATTCGCACCGACAC”, the “relative integration efficiency (log2)” value in series [1] was -0.982 ± 0.24; in series [2], 2.03 ± 0.09.
For “ACATTTGTTGATACAACCATTAAATGATAATTACACCCATAAATTGATAATAATGACACCGAATTTAACTATAACGCTCTGATCATAGTCAGACCAACATTGCTACGACCCGTATTCGCACCGACAC”, the “relative integration efficiency (log2)” value in series [1] is -0.985 ± 0.22; in series [2], 1.98 ± 0.0099.
Consider “ACATTTGTTGATACAACCATTAAATGATAATTACACCCATAAATTGATAATGATGACACCGAATTTAACTATAACGCTCTGATCATAGTCAGACCAACATTGCTACGACCCGTATTCGCACCGACAC”, for which the figures for the “relative integration efficiency (log2)” value in series [1] and in series [2] were -1.3 ± 0.18 and 1.9 ± 0.16, respectively.
Take “ACATTTGTTGATACAACCATTAAATGATAATTACACCCATAAATTGATAATTGTGACACCGAATTTAACTATAACGCTCTGATCATAGTCAGACCAACATTGCTACGACCCGTATTCGCACCGACAC”: the entries for the “relative integration efficiency (log2)” value in series [1] and in series [2] were -1.2 ± 0.14 and 1.99 ± 0.027, respectively.
“ACATTTGTTGATACAACCATTAAATGATAATTACACCCATAATTTGATAATTATCACACCCAATTTAACTATAACGCTCTGATCATAGTCAGACCAACATTGCTACGACCCGTATTCGCACCGACAC”: the “relative integration efficiency (log2)” value in series [1] is -0.76 ± 0.025; in series [2], 2.23 ± 0.16.
Consider “ACATTTGTTGATACAACCATTAAATGATAATTACACCCATATATTGATAATTATCACACCCAATTTAACTATAACGCTCTGATCATAGTCAGACCAACATTGCTACGACCCGTATTCGCACCGACAC”, for which the “relative integration efficiency (log2)” value in series [1] is -0.809 ± 0.018; in series [2] it was 2.04 ± 0.065.
Consider “ACATTTGTTGATACAACCATTAAATGATAATTACACCCATTAATTGATAATTATCACACCCATTAATTGATATTGCCTCTGATCATAGTCAGACCAACATTGCTACGACCCGTATTCGCACCGACAC”, for which the “relative integration efficiency (log2)” value in series [1] is -0.515 ± 0.021; in series [2] it was -0.0993 ± 0.43.
In the case of “ACATTTGTTGATACAACCATTAAATGATAATTCCACCAATAAATTGATAATTATCACACCCAATTTAACTATAACGCTCTGATCATAGTCAGACCAACATTGCTACGACCCGTATTCGCACCGACAC”, the “relative integration efficiency (log2)” value in series [1] is -1.51 ± 0.17; in series [2] it was 1.37 ± 0.042.
As for “ACATTTGTTGATACAACCATTAAATGATAATTCCACCCAAAAATTGATAATTATCACACCCAATTTAACTATAACGCTCTGATCATAGTCAGACCAACATTGCTACGACCCGTATTCGCACCGACAC”, the results for the “relative integration efficiency (log2)” value in series [1] and in series [2] were -0.813 ± 0.13 and 2.42 ± 0.24, respectively.
With “ACATTTGTTGATACAACCATTAAATGATAATTCCACCCAAATATTGATAATTATCACACCCAATTTAACTATAACGCTCTGATCATAGTCAGACCAACATTGCTACGACCCGTATTCGCACCGACAC”, the “relative integration efficiency (log2)” value in series [1] is -1.51 ± 0.05; in series [2] it was 1.47 ± 0.08.
As to “ACATTTGTTGATACAACCATTAAATGATAATTCCACCCAGAAATTGATAATTATCACACCCAATTTAACTATAACGCTCTGATCATAGTCAGACCAACATTGCTACGACCCGTATTCGCACCGACAC”, the entries for the “relative integration efficiency (log2)” value in series [1] and in series [2] were -3.25 ± 0.24 and -0.278 ± 0.36, respectively.
Regarding “ACATTTGTTGATACAACCATTAAATGATAATTCCACCCATAAATTGATAATTATCACACCCAATTTAACTATAACGCTCTGATCATAGTCAGACCAACATTGCTACGACCCGTATTCGCACCGACAC”, the “relative integration efficiency (log2)” value was -1.06 ± 0.17 in series [1] and 2.34 ± 0.17 in series [2].
With “ACATTTGTTGATACAACCATTAAATGATAATTCCACCCATAACTTGATAATTATCACACCCAATTTAACTATAACGCTCTGATCATAGTCAGACCAACATTGCTACGACCCGTATTCGCACCGACAC”, the “relative integration efficiency (log2)” value in series [1] was -1.14 ± 0.15; in series [2], 1.93 ± 0.17.
On to “ACATTTGTTGATACAACCATTAAATGATAATTCCACCCATAATTTGATAATTATCACACCCAATTTAACTATAACGCTCTGATCATAGTCAGACCAACATTGCTACGACCCGTATTCGCACCGACAC”, for which the “relative integration efficiency (log2)” value in series [1] was -0.743 ± 0.14; in series [2], 2.52 ± 0.061.
For “ACATTTGTTGATACAACCATTAAATGATAATTCCACCCATACATTGATAATTATCACACCCAATTTAACTATAACGCTCTGATCATAGTCAGACCAACATTGCTACGACCCGTATTCGCACCGACAC”, the figures for the “relative integration efficiency (log2)” value in series [1] and in series [2] were -2.63 ± 0.34 and 0.395 ± 0.29, respectively.
With “ACATTTGTTGATACAACCATTAAATGATAATTCCACCCATATATTGATAATTATCACACCCAATTTAACTATAACGCTCTGATCATAGTCAGACCAACATTGCTACGACCCGTATTCGCACCGACAC”, the “relative integration efficiency (log2)” value in series [1] was -1.24 ± 0.15; in series [2] it was 2.16 ± 0.074.
The like results for “ACATTTGTTGATACAACCATTAAATGATAATTCCACCCATCAATTGATAATTATCACACCCAATTTAACTATAACGCTCTGATCATAGTCAGACCAACATTGCTACGACCCGTATTCGCACCGACAC” were, in that order, -1.79 ± 0.23 and 1.01 ± 0.31.
With “ACATTTGTTGATACAACCATTAAATGATAATTCCACCCCTAAATTGATAATTATCACACCCAATTTAACTATAACGCTCTGATCATAGTCAGACCAACATTGCTACGACCCGTATTCGCACCGACAC”, the “relative integration efficiency (log2)” value is -2.75 ± 0.27 in series [1] and 0.256 ± 0.39 in series [2].

The values above are taken from the supplement of paper PMC10201428.
